# B1: FRG monoclonal antibody (antibody, V domains shown)
# VH: QIQLVQSGPELKKPGETVKISCKASGYTFTNYGMNWVKQAPGKGLKWMGWINTYTGEPTYADDFKGRFAFSLETSASTAYLQINNLRNEDMSTYFCARLGYGKFYVMDYWGQGTSVTVSS
# VL: DVVMTQTPLSLPVSLGDQASISCRSSQSLVHSNGNTYLHWYLQKPGQSPKLLIYKVSNRFSGVPDRFSGSGSGTDFTLKISRVEAEDLGVYFCSQSTHVTWTFGGGTKLEIK
# notes: also called FRG mAb; anti-Chi3l1-FRG
# Key:
# [1] = biological target: T1, human Chi3l1 (chitinase 3-like-1) (human, UniProt P36222 22-383); assay: Western blot and ELISA, denaturing and non-denaturing conditions
# T1 construct: also called YKL-40; recombinant (r) human Chi3l1
# T1 sequence (P36222 22-383 limits assumed): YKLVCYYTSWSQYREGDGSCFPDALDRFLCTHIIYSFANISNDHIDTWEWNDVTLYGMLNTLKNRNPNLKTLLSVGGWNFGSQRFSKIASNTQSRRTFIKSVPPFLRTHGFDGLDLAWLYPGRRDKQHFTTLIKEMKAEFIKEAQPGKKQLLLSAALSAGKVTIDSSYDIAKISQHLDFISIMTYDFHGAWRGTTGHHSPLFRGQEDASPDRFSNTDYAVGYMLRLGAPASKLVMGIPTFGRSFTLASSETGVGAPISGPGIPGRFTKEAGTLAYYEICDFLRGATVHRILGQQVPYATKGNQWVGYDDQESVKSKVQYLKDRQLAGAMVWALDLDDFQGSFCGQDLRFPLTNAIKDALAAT
# [2] = biological target: T2, mouse Chi3l1 (chitinase 3-like-1) (mouse, UniProt Q61362 30-389, limits assumed); assay: as above
# T2 construct: Recombinant mouse Chi3l1; also called murine Chi3l1; Chil1 (printed 'Chill')
# T2 sequence (Q61362 30-389 limits assumed): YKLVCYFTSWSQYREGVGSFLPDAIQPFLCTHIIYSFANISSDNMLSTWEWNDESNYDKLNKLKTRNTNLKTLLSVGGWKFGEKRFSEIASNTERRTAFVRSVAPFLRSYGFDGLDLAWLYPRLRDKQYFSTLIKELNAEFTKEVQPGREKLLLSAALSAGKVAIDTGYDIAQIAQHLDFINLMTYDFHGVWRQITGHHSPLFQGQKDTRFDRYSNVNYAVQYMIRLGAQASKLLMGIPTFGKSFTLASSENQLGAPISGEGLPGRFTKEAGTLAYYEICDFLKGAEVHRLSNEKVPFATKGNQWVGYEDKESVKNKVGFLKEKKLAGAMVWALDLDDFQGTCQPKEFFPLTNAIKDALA
binder,measurement,setting,value
B1,binding result,[1],binds
same,binding result,[2],binds

# — patent publication US20200354474A1 (BROWN UNIVERSITY, published 2020)
